Experimental data taken from patent US20250346679A1 (INVOX PHARMA, published 2025).
Numbering of substitutions follows the chain as printed. Values belong to the binder of their own block, whether it stands above or below them.

What was measured:
human CD40 = human CD40 (human, UniProt P25942 21-193, limits assumed); assay: SPR, receptor amine-coupled to CM5 (~1000 RU)
Description: (§1) The specificity of the anti-human CD137 Fcabs for human CD137 compared to other related TNFSFR family members was tested. 8 of the Fcabs were tested in mock mAb² (HeID1.3) format and measured by SPR in a Biacore T200 (GE Healthcare) by testing for binding to other human TNFRSF receptors: CD40, OX40 and GITR. Amine coupling (amine coupling kit, GE Healthcare, BR-1000-50) was used to coat human CD40, GITR and OX40 to approximately 1000 RU in Biacore CM5 chips (GE Healthcare, cat no 29149603). […] The chip was regenerated by injection of 10 mM glycine pH 2.5 for 12 s at 30 μl/min. Antibodies specific to the different TNFRSF members were used as positive controls to verify Biacore chip coating. Data was double reference subtracted and analysed using BIAevaluation 3.2 software.

human OX40 = biological target: T1, human OX40 (human, UniProt P43489 29-216); assay: SPR, receptor amine-coupled to CM5 (~1000 RU)
T1 sequence (looked up): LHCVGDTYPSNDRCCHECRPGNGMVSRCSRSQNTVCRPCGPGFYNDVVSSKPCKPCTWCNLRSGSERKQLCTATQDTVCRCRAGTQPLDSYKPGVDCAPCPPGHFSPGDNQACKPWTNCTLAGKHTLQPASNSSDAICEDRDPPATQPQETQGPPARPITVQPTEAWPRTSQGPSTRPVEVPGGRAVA
Description: as §1

human GITR = biological target: T2, human GITR (human, UniProt Q9Y5U5 26-161, limits assumed); assay: SPR, receptor amine-coupled to CM5 (~1000 RU)
T2 sequence (looked up): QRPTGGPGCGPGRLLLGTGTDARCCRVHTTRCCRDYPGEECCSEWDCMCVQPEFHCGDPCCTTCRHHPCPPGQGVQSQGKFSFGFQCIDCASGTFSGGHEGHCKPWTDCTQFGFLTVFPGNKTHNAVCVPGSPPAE
Description: as §1

[1] = biological target: human CD137, cell-surface (human, UniProt Q07011 24-255); assay: cell-based or functional assay
[2] = biological target: human PD-L1, cell-surface (human, UniProt Q9NZQ7 19-290); assay: cell-based or functional assay
human PD-L1, cell-surface, sequence (Q9NZQ7 19-290): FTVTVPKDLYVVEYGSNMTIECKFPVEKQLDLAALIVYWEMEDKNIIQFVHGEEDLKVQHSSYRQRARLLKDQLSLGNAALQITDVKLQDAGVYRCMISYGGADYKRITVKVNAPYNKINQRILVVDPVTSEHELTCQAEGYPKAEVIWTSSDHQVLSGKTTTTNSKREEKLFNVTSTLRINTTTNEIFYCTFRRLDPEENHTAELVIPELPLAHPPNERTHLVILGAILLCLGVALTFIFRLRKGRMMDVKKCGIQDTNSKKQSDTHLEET

[3] = biological target: T3, cynomolgus CD137, cell-surface (cynomolgus, UniProt Q07011 24-255 (human entry)); assay: cell-based or functional assay
T3 chain: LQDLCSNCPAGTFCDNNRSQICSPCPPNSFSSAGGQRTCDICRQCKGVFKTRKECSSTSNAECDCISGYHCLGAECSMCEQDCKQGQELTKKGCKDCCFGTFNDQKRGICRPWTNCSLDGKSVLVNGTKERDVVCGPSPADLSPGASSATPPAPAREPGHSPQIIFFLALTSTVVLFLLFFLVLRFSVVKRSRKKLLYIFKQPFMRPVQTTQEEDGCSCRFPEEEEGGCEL

hCD137-mFc-Avi = biological target: T4, hCD137-mFc-Avi (human; mouse, UniProt Q07011 24-186, biotin on the Avi sequence where the biotinylated form was used); assay: flow cytometry of yeast clones with 10 nM dimeric human antigen
T4 construct: also called human CD137-mFc-Avi; dimeric human CD137; not shown: mouse IgG2a Fc domain (mIgG2a Fc)
T4 sequence (Q07011 24-186): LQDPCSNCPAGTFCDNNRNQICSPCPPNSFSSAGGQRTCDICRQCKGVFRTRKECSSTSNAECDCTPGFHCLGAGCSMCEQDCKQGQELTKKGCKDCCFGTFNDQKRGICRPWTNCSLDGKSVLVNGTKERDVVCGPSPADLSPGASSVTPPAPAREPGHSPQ

human CD40, sequence (P25942 21-193 limits assumed): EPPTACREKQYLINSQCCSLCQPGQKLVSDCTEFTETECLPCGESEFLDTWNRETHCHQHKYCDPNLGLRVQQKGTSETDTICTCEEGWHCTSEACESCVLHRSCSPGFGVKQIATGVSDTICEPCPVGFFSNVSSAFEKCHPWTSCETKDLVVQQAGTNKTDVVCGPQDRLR

B4: FS22-053-017-AA/E12v2 (bispecific antibody, human IgG1, kappa, L234A L235A)
heavy: EVQLVQSGAEVKRPGASVKVSCKASGYPFTSYGISWVRQAPGQGLEWMGWISAYSGGTNYAQKLQGRVTMTTDTSTSTAYMELRSLRSDDTAVYYCARDLFPTIFGVSYYYYWGQGTLVTVSSASTKGPSVFPLAPSSKSTSGGTAALGCLVKDYFPEPVTVSWNSGALTSGVHTFPAVLQSSGLYSLSSVVTVPSSSLGTQTYICNVNHKPSNTKVDKKVEPKSCDKTHTCPPCPAPEAAGGPSVFLFPPKPKDTLMISRTPEVTCVVVDVSHEDPEVKFNWYVDGVEVHNAKTKPREEQYNSTYRVVSVLTVLHQDWLNGKEYKCKVSNKALPAPIEKTISKAKGQPREPQVYTLPPSRDELNPPYLFSNQVSLTCLVKGFYPSDIAVEWESNGQPENNYKTTPPVLDSDGSFFLYSKLTVYHWRWLEGNVFSCSVMHEALHNHYTQKSLSLSPG
light: DIQMTQSPSTLSASVRDRVIITCRASQSIGNRLAWYQHKPGKAPKLLIYEASTSETGVPSRFSGSGSGTDFTLTISSLQPEDFATYYCQQSYSTPYTFGQGTKLEIKRTVAAPSVFIFPPSDEQLKSGTASVVCLLNNFYPREAKVQWKVDNALQSGNSQESVTEQDSKDSTYSLSSTLTLSKADYEKHKVYACEVTHQGLSSPVTKSFNRGEC
EC50 (nM), hIL-2 release, CD8+ T cells, donor 171115A, HEK.hPD-L1 XL [1]: 0.11 nM | EC50 (nM), hIL-2 release, CD8+ T cells, donor 171115A, MDA-MB-231 XL [1]: 0.01 nM | EC50 (nM), hIL-2 release, CD8+ T cells, donor 171115B, HEK.hPD-L1 XL [1]: 0.12 nM | EC50 (nM), hIL-2 release, CD8+ T cells, donor 171115B, MDA-MB-231 XL [1]: 0.01 nM | EC50 (nM), IFN-γ release, human MLR [2]: 0.04 nM | Emax (pg/ml), IFN-γ release, human MLR [2]: 3330 pg/mL | EC50 (nM) (crosslinked), mIL-2 release, DO11.10.cCD137 with HEK.cyPD-L1 [3]: 0.11 nM | Emax (pg/ml) (crosslinked), mIL-2 release, DO11.10.cCD137 with HEK.cyPD-L1 [3]: 9360 pg/mL

B6: FS22-172-004 Fcab clone displayed on yeast (designed binder)
chain: GQPREPQVYTLPPSRDELNYIYPPYNQVSLTCLVKGFYPSDIAVEWESNGQPENNYKTTPPVLDSDGSFFLYSKLTVGADRWLEGNVFSCSVMHEALHNHYTQKSLSLSPG
% APC positive cells (hCD137-mFc-Avi): > 10%

B7: FS22-053-009 Fcab clone displayed on yeast (designed binder)
chain: B6 chain with Y20P, I21P, P23L, P24F, Y25S, G78E, A79H, D80T, E84D
notes: yeast display clone, FS22-053 EF library
% APC positive cells (hCD137-mFc-Avi): > 30%

B9: FS22-053-008 Fcab clone displayed on yeast (designed binder)
chain: B6 chain with Y20P, I21P, P23L, P24F, Y25S, G78D, A79Y, D80W
notes: as for B7
% APC positive cells (hCD137-mFc-Avi): > 30%

B10: FS22-053-010 Fcab clone displayed on yeast (designed binder)
chain: B6 chain with Y20P, I21P, P23L, P24F, Y25S, G78D, A79Y, D80M, E84D
notes: as for B7
% APC positive cells (hCD137-mFc-Avi): > 30%

B15: FS22-053-012 Fcab clone displayed on yeast (designed binder)
chain: B6 chain with Y20P, I21P, P23L, P24F, Y25S, G78D, A79H, D80M
notes: as for B7
% APC positive cells (hCD137-mFc-Avi): > 30%

B16: FS22-053-011 Fcab clone displayed on yeast (designed binder)
chain: B6 chain with Y20P, I21P, P23L, P24F, Y25S, G78D, A79Y, D80W, L83T, E84D
notes: as for B7
% APC positive cells (hCD137-mFc-Avi): > 30%

Next, values leading:

binding result (human CD40): no binding (tested: 1 µM) | binding result (human OX40): no binding (tested: 1 µM) | binding result (human GITR): no binding (tested: 1 µM)
B1: FS22-053-009/HeID1.3 (bispecific antibody, human IgG1, kappa)
heavy: QVQLQESGPGLVRPSQTLSLTCTVSGSTFSGYGVNWVRQPPGRGLEWIGMIWGDGNTDYNSALKSRVTMLVDTSKNQFSLRLSSVTAADTAVYYCARERDYRLDYWGQGSLVTVSSASTKGPSVFPLAPSSKSTSGGTAALGCLVKDYFPEPVTVSWNSGALTSGVHTFPAVLQSSGLYSLSSVVTVPSSSLGTQTYICNVNHKPSNTKVDKKVEPKSCDKTHTCPPCPAPELLGGPSVFLFPPKPKDTLMISRTPEVTCVVVDVSHEDPEVKFNWYVDGVEVHNAKTKPREEQYNSTYRVVSVLTVLHQDWLNGKEYKCKVSNKALPAPIEKTISKAKGQPREPQVYTLPPSRDELNPPYLFSNQVSLTCLVKGFYPSDIAVEWESNGQPENNYKTTPPVLDSDGSFFLYSKLTVEHTRWLDGNVFSCSVMHEALHNHYTQKSLSLSPG
light: DIQMTQSPASLSASVGETVTITCRASGNIHNYLAWYQQKQGKSPQLLVYNAKTLADGVPSRFSGSGSGTQYSLKINSLQPEDFGSYYCQHFWSTPRTFGGGTKLEIKRTVAAPSVFIFPPSDEQLKSGTASVVCLLNNFYPREAKVQWKVDNALQSGNSQESVTEQDSKDSTYSLSSTLTLSKADYEKHKVYACEVTHQGLSSPVTKSFNRGEC
notes: mock mAb^2; also called FS22-053-009 (mock mAb^2 format)

binding result (human CD40): no binding (tested: 1 µM) | binding result (human OX40): no binding (tested: 1 µM) | binding result (human GITR): no binding (tested: 1 µM)
B2: FS22-053-012/HeID1.3 (bispecific antibody, human IgG1, kappa)
heavy: B1 heavy with E417D, T419M, D423E
light: B1 light
notes: mock mAb^2; also called FS22-053-012 (mock mAb^2 format)

binding result (human CD40): no binding (tested: 1 µM) | binding result (human OX40): no binding (tested: 1 µM) | binding result (human GITR): no binding (tested: 1 µM)
B3: FS22-053-010/HeID1.3 (bispecific antibody, human IgG1, kappa)
heavy: B1 heavy with E417D, H418Y, T419M
light: B1 light
notes: mock mAb^2; also called FS22-053-010 (mock mAb^2 format)

EC50 (nM), hIL-2 release, CD8+ T cells, donor 171115A, HEK.hPD-L1 XL [1]: 0.1 nM | EC50 (nM), hIL-2 release, CD8+ T cells, donor 171115A, MDA-MB-231 XL [1]: 0.01 nM | EC50 (nM), hIL-2 release, CD8+ T cells, donor 171115B, HEK.hPD-L1 XL [1]: 0.2 nM | EC50 (nM), hIL-2 release, CD8+ T cells, donor 171115B, MDA-MB-231 XL [1]: 0.01 nM | EC50 (nM) (crosslinked), mIL-2 release, DO11.10.cCD137 with HEK.cyPD-L1 [3]: 0.08 nM | Emax (pg/ml) (crosslinked), mIL-2 release, DO11.10.cCD137 with HEK.cyPD-L1 [3]: 8930 pg/mL
B5: FS22-053-017-AA/G12v2 (bispecific antibody, human IgG1, kappa, L234A L235A)
heavy: B4 heavy with P28T
light: DIQMTQSPSTLSASVGDRVTITCRASQSISGRLAWYQQKPGKAPNLLIYEASNLESGVPSRFSGSGSGTEFTLTISSLQPEDFATYYCQQSYSWPRTFGQGTKVEIKRTVAAPSVFIFPPSDEQLKSGTASVVCLLNNFYPREAKVQWKVDNALQSGNSQESVTEQDSKDSTYSLSSTLTLSKADYEKHKVYACEVTHQGLSSPVTKSFNRGEC

% APC positive cells (hCD137-mFc-Avi): > 10%
B8: FS22-172-003 Fcab clone displayed on yeast (designed binder)
chain: B6 chain with N19P, Y22I

% APC positive cells (hCD137-mFc-Avi): > 10%
B11: FS22-172-002 Fcab clone displayed on yeast (designed binder)
chain: B6 chain with N19P, Y20F, I21Q, Y22M

% APC positive cells (hCD137-mFc-Avi): > 10%
B12: FS22-172-001 Fcab clone displayed on yeast (designed binder)
chain: B6 chain with N19P, Y20F, I21V, Y22M

% APC positive cells (hCD137-mFc-Avi): > 10%
B13: FS22-172-005 Fcab clone displayed on yeast (designed binder)
chain: B6 chain with N19Q, Y20Q, I21V

% APC positive cells (hCD137-mFc-Avi): > 10%
B14: FS22-172-006 Fcab clone displayed on yeast (designed binder)
chain: B6 chain with N19R, Y20K, I21Y, V28L
